T1: KOD DNA polymerase (DNA polymerase derived from Thermococcus kodakaraensis KOD1) (Thermococcus kodakaraensis KOD1, UniProt P77933 1-1671)
T1 sequence: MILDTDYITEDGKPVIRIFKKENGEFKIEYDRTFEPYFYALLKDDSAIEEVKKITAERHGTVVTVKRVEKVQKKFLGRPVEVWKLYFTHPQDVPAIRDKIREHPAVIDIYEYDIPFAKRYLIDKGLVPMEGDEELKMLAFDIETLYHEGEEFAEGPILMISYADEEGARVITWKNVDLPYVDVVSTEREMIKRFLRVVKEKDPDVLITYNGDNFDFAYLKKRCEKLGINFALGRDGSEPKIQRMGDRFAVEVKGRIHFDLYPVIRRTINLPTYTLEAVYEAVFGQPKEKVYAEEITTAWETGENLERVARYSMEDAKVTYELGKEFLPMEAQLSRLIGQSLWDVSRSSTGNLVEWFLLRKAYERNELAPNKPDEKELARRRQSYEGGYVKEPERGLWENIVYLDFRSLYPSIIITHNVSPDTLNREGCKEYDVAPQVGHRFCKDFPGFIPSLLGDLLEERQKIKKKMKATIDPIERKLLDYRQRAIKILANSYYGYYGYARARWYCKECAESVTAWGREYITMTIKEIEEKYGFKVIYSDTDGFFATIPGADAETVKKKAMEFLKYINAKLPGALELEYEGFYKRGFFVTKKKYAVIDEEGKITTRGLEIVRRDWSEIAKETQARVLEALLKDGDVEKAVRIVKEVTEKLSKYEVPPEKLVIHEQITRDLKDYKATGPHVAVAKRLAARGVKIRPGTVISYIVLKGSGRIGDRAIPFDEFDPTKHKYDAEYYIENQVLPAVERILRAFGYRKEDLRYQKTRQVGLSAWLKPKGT

B1: KOD-PCNA (proliferating cell nuclear antigen) derived from Thermococcus kodakaraensis KOD1 (other)
chain: PFEVVFDGAKEFADLIATASNLIDEAAFKFTEEGISMRAMDPSRVVLIDLNLPESIFSKYEVEEPETIGINMDQFKKILKRGKAKDTLILRKGDENFLEITFEGTAKRTFRLPLIDVEELELELPELPFTAKVVLLGEVLKEGIKDASLVSDAIKFIAKENEFTMKAEGETNEVEIRLTLEDEGLLDLEVEEETKSAYGISYLSDMVKGIGKADEVILRFGNEMPLQMEYMIRDEGRLTFLLAPRVEE
notes: also called KOD-PCNA protein; KOD-PCNA complex
B2: Pfu polymerase: DNA polymerase derived from Pyrococcus furiosus (protein, UniProt P61875 1-775, looked up)
DNA polymerase: MILDVDYITEEGKPVIRLFKKENGKFKIEHDRTFRPYIYALLRDDSKIEEVKKITGERHGKIVRIVDVEKVEKKFLGKPITVWKLYLEHPQDVPTIREKVREHPAVVDIFEYDIPFAKRYLIDKGLIPMEGEEELKILAFDIETLYHEGEEFGKGPIIMISYADENEAKVITWKNIDLPYVEVVSSEREMIKRFLRIIREKDPDIIVTYNGDSFDFPYLAKRAEKLGIKLTIGRDGSEPKMQRIGDMTAVEVKGRIHFDLYHVITRTINLPTYTLEAVYEAIFGKPKEKVYADEIAKAWESGENLERVAKYSMEDAKATYELGKEFLPMEIQLSRLVGQPLWDVSRSSTGNLVEWFLLRKAYERNEVAPNKPSEEEYQRRLRESYTGGFVKEPEKGLWENIVYLDFRALYPSIIITHNVSPDTLNLEGCKNYDIAPQVGHKFCKDIPGFIPSLLGHLLEERQKIKTKMKETQDPIEKILLDYRQKAIKLLANSFYGYYGYAKARWYCKECAESVTAWGRKYIELVWKELEEKFGFKVLYIDTDGLYATIPGGESEEIKKKALEFVKYINSKLPGLLELEYEGFYKRGFFVTKKRYAVIDEEGKVITRGLEIVRRDWSEIAKETQARVLETILKHGDVEEAVRIVKEVIQKLANYEIPPEKLAIYEQITRPLHEYKAIGPHVAVAKKLAAKGVKIKPGMVIGYIVLRGDGPISNRAILAEEYDPKKHKYDAEYYIENQVLPAVLRILEGFGYRKEDLRYQKTRQVGLTSWLNIKKS

Assays:
M13 single-stranded DNA = settings: Takagi et al. 1997; cited from earlier work
pMol 21 = settings: PCR product fidelity, rpsL / pMol 21 method; cited from earlier work
[1] = target: the molecule itself; test: gel filtration HPLC (TSKgel G3000SW), molecular weight against standard samples
[2] = target: T1, KOD DNA polymerase (DNA polymerase …); test: cell-based or functional assay

| Molecule | DNA elongation rate (M13 single-stranded DNA) [bases/second] | mutation rate (pMol 21) [%] | binding result [1] | DNA elongation rate relative to the sample with no PCNA added [2] [times] |
| --- | --- | --- | --- | --- |
| Taq polymerase: DNA polymerase derived from Thermus aquaticus | 61.0 | ≥ 4 | – | – |
| B1 | – | – | binds | ~3 |
| B2 | 24.8 | – | – | – |

— US20050069887A1, “Dna synthesis promoters dna polymerase-associated factors and utilization thereof” (priority 2001, published 2005)
